In patent US7960513B2, “Antibody against a human ADAM protease” (Monash University, priority 2004, dated 2011):

T1: EphA3 (wild type, expressed in cells) (UniProt P29320 21-983, limits assumed)
T1 construct: whole, on cells; also called wt EphA3; w/t EphA3
T1 sequence (looked up): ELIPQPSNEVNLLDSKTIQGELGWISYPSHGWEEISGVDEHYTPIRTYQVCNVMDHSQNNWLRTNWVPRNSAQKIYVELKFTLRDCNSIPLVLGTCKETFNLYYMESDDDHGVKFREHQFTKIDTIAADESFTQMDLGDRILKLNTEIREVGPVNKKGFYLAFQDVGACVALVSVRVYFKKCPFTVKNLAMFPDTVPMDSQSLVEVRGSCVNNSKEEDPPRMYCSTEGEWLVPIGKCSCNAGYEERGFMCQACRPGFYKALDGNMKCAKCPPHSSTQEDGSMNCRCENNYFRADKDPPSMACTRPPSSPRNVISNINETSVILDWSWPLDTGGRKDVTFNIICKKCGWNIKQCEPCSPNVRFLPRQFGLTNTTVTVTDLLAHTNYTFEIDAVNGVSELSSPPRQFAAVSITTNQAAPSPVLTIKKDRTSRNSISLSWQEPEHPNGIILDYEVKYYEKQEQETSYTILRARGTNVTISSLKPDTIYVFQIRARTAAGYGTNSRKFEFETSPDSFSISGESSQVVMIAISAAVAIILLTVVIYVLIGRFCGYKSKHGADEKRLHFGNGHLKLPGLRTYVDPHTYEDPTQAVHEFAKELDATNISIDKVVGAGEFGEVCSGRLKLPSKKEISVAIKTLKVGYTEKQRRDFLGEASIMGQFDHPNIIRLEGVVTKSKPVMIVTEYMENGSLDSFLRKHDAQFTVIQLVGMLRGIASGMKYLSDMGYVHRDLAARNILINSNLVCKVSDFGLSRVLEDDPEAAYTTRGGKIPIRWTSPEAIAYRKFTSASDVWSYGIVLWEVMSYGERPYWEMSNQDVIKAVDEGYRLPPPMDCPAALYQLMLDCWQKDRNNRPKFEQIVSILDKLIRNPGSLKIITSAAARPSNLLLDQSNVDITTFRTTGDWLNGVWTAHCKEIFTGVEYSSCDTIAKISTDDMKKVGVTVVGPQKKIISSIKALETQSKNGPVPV


Key:
[1] = molecular target: T1, EphA3 (wild type, expressed in cells); test: anti-EphA3 immunoprecipitation, anti-ADAM10 Western blot
Experimental: Cells were cultured in DME/10% FCS and transfected with Lipofectamine 2000 (Invitrogen), and in some experiments treated with the metalloprotease inhibitors 1,10-O-Phenanthroline (OPN, 4h, 1 mM; Mumm et al., 2000, Mol. Cell. 5 197-206) and TAPI1 (1h, 50 µM; Yan et al., 2002, J Cell Biol. 158 221-6). HEK293 cells were transfected with EphA3 (Wicks et al., 1992, Proc. Natl. Acad. Sci. USA 89 1611-1615) or ephrin-A5 (Winslow et al., 1995, Neuron 14 973-81; Lackmann et al., 1996, Proc. Natl. Acad. Sci. USA 93 2523-2527) in pEfBos vectors containing puromycin or gentamycin resistance genes, respectively and stable EphA3/HEK293 or ephrin-A5/HEK293 clones derived accordingly. Serum-starved cells were stimulated (10 min) with 1.5 ug/ml pre-clustered ephrinA5-Fc and harvested, as described previously. Immunoprecipitation was with anti-EphA3 mAb IIIA4 (Boyd et al., 1992, J Biol. Chem. 267 3262-3267. or anti-HA mAb 3F10 (Roche) conjugated to beads, and Western blotting was performed using anti-ADAM10 (Biogenesis, UK), anti-ephrinA5 (R&D Systems) and anti-ephA3 (Lackmann et al., 1997, supra) antibodies.
Initially, we investigated whether ADAM10 interacts with either EphA3 or ephrin-A5 on the cell surface and how these interactions are affected upon Eph/ephrin complex formation. […]

HEK293 cells = test: Confocal imaging of co-cultured EphA3-diHcRed/ADAM10 and GFP-ephrin expressing cells; type: cell-based, human; details: co-incubation with GFP-ephrin-A5 or GFP-ephrin-A2 cells for 40 min
Experimental: (§1) FIG. 4. Mutation of acidic residues in the ADAM10 Cys-rich domain affects binding to EphA3/ephrin-A5 and cleavage of ephrin-A5. • A. In vitro binding of mutant ADAM10D+C to EphA3/ephrin-A5. ADAM10D+C[EEE-A] containing Alanine substitutions of Glu573, Glu578, Glu579 (lanes 1-4) or ADAM10D+C[RDD-A] (Ala substitutions of Arg525, Asp526, Asp527, lanes 5-8) were incubated alone (lanes 1, 5), or together with EphA3-Fc (lanes 2, 6), ephrin-A5-Fc (lanes 3, 7), or EphA3-Fc and ephrin-A5 (lanes 4, 8). Complexed proteins were extracted with Protein-A-Sepharose beads and analysed as in FIG. 2. • B. Binding of wild-type and mutant ADAM10ΔMP to EphA3 in cells. EphA3/293 cells were transfected with HA-ADAM10ΔMP or HA-ADAM10ΔMP [EEE-A]. Parental and transfected cells were treated for 10 min with or without pre-clustered ephrin-A5-Fc and lysed. Anti-HA and anti-EphA3 immunoprecipitates, and total cell lysates were analysed by Western blotting with indicated antibodies. • C. Ephrin-A5-Fc cleavage in cells expressing wt and 3A mutant ADAM10. EphA3/293 cells were transfected with full length, wild-type (wt) ADAM10, dominant-negative ADAM10ΔMP, or ADAM10 bearing alanine (3A) or 3 lysine (3K) substitutions of Glu573, 578, 579. Following exposure to clustered (+) or non-clustered ? ephrin-A5 Fc, cleaved ephrin was recovered and analysed by Western Blot as described in FIG. 1c. Parallel anti-HA blots of whole-cell lysates reveal the expression levels of ADAM10 constructs. • D. Model of ADAM protein modules and cleavage mechanism. Left, schematic representation of ADAM proteinases protein domain organization; right, schematic representation of the proposed interactions and positioning of ADAM10, EphA3, and Ephrin-A5 between interacting cells, leading to controlled ephrin-cleavage. • E. Ephrin cleavage from the cell surface is blocked by overexpression of 3A-mutant ADAM10. HEK293 cells were co-transfected with (red-fluorescent) EphA3-diHcRed and either wt ADAM10, ADAM10 bearing alanine (3A) substitutions at Glu573, Glu578, and Glu579, or dominant-negative ADAM10ΔMP. […]

[2] = test system: EphA3-expressing 293 cells; test: Ephrin-A5-Fc cleavage in EphA3/293 cells overexpressing ADAM10 constructs (Western blot of recovered ephrin); type: cell-based, human; details: overexpression of ADAM10 construct; clustered ephrin-A5-Fc
Experimental: as §1, with “1c.” for “1c. Parallel anti-HA blots of whole-cell lysates reveal the expression levels of ADAM10 constructs. • D. Model of ADAM protein modules and cleavage mechanism. Left, schematic representation of ADAM proteinases protein domain organization; right, schematic representation of the proposed interactions and positioning of ADAM10, EphA3, and Ephrin-A5 between interacting cells, leading to controlled ephrin-cleavage. • E. Ephrin cleavage from the cell surface is blocked by overexpression of 3A-mutant ADAM10. HEK293 cells were co-transfected with (red-fluorescent) EphA3-diHcRed and either wt ADAM10, ADAM10 bearing alanine (3A) substitutions at Glu573, Glu578, and Glu579, or dominant-negative ADAM10ΔMP.”

Molecule	binding result [1]	ephrin cleavage from the cell surface and internalisation (HEK293 cells)	ephrin-A5 cleavage [2]
endogenous ADAM10 (HEK293 and LiBr melanoma cells) (enzyme, human, UniProt O14672 214-748, looked up, whole, on cells; Both pro and mature forms are marked on the blot; also called pro (unprocessed) and mature (processed) forms) TTSAEKNTCQLYIQTDHLFFKYYGTREAVIAQISSHVKAIDTIYQTTDFSGIRNISFMVKRIRINTTADEKDPTNPFRFPNIGVEKFLELNSEQNHDDYCLAYVFTDRDFDDGVLGLAWVGAPSGSSGGICEKSKLYSDGKKKSLNTGIITVQNYGSHVPPKVSHITFAHEVGHNFGSPHDSGTECTPGESKNLGQKENGNYIMYARATSGDKLNNNKFSLCSIRNISQVLEKKRNNCFVESGQPICGNGMVEQGEECDCGYSDQCKDECCFDANQPEGRKCKLKPGKQCSPSQGPCCTAQCAFKSKSEKCRDDSDCAREGICNGFTALCPASDPKPNFTDCNRHTQVCINGQCAGSICEKYGLEECTCASSDGKDDKELCHVCCMKKMDPSTCASTGSVQWSRHFSGRTITLQPGSPCNDFRGYCDVFMRCRLVDADGPLARLKKAIFSPELYENIAEWIVAHWWAVLLMGIALIMLMAGFIKICSVHTPSSNPKLPPPKPLPGTLKRRRPPQPIQQPQRQRPRESYQMGHMRR	binds		
wt-ADAM10: full length, wild-type ADAM10 overexpressed in cells (protein, left off: small tags and cut ends, full length, wild-type ADAM10 overexpressed in cells) TTVAEKNTCQLYIQTDHLFFKYYGTREAVIAQISSHVKAIDTIYQTTDFSGIRNISFMVKRIRINTTADEKDPTNPFRFPNIGVEKFLELNSEQNHDDYCLAYVFTDRDFDDGVLGLAWVGAPSGSSGGICEKSKLYSDGKKKSLNTGIITVQNYGSHVPPKVSHITFAHEVGHNFGSPHDSGTECTPGESKNLGQKENGNYIMYARATSGDKLNNNKFSLCSIRNISQVLEKKRNNCFVESGQPICGNGMVEQGEECDCGYSDQCKDECCYDANQPEGKKCKLKPGKQCSPSQGPCCTAHCAFKSKTEKCRDDSDCAKEGICNGITALCPASDPKPNFTDCNRHTQVCINGQCAGSICEKHGLEECTCASSDGKDDKELCHVCCMKKMEPSTCASTGSVQWNKYFLGRTITLQPGSPCNDFRGYCDVFMRCRLVDADGPLARLKKAIFSPELYENIAEWIVAYWWAVLLMGIALIMLMAGFIKICSVHTPSSNPKLPPPKPLPGTLKRRRPPQPIQQPQRQRPRESYQMGHMRR		readily noticeable	did not increase ephrin cleavage above control levels
